Source: patent US20110039770A1, “INHIBITORS OF PROTEIN KINASE C ISOFORMS AND USES THEREOF” (PHARMAGAP INC., priority 2005, published 2011)
Where a SMILES comes first, the peptide text is derived from it. [ ]: non-standard residue; d: D form.

Target: T1, PKC-ζ (Homo sapiens, UniProt Q05513)
T1 sequence (Q05513 1-592): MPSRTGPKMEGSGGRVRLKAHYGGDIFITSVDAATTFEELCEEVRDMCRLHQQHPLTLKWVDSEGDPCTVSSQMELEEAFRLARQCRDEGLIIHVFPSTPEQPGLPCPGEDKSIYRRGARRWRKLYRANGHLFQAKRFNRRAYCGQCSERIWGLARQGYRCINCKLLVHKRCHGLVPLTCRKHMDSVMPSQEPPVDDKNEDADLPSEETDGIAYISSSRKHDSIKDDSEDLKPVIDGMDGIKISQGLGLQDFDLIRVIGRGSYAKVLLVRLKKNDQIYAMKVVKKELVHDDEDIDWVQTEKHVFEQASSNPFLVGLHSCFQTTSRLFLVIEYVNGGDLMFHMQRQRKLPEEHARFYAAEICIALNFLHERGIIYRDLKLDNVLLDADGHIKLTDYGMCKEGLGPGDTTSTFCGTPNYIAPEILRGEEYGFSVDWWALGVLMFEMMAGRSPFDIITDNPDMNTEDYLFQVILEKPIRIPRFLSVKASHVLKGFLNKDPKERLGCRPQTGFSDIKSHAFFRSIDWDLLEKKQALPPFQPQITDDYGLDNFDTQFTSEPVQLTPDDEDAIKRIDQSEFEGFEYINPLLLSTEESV
Test: ELISA-based competitive binding assay with purified PKC isoform
Design: key to Affinity for PKC isoform ζ: —: no detectable affinity; Low to very low affinity at 10X or 20X or both PRE concentrations in at least one cell line in the cell extract assay; Low affinity in purified isoform assay.; Moderate affinity at 10X or 20X or both PRE concentrations in at least one cell line in the cell extract assay.; High affinity at 10X or 20X or both PRE concentrations in at least one cell line in the cell extract assay; High affinity in purified isoform assay
Details: for Affinity for PKC isoform ζ: Purified isoform
Protocol: Peptides PRE 1, 2, 3, 4, 5, 6, 7, 8, 9, 10, 11, 12 and 13 (see Table 3) were tested for their ability to interfere with binding of PKC isoform-specific antibodies to their target PKC isoforms using a competitive binding assay and purified PKC isoforms.
Procedure: Competitive binding was assessed using a 96 well plate ELISA-based assay as described below.
Greiner 96 well ELISA plates were coated with the appropriate PKC isoform diluted in PBSN (PBS with Calcium/Magnesium+0.05% Sodium azide w/w). 50 μL/well at 250 ng/mL was used. Control wells contained PBSN only. Plates were incubated overnight at 4° C.
The plates were washed 3 times with 200 μL of dH2O per well, then 100 μL of blocking solution was added per well and the plate incubated for 1 h at 37° C. The washing steps with dH2O were repeated and 50 μL of the appropriate PRE solution (PRE stock solution [20 mM in DMSO] diluted in PBSN) was added and the plate incubated for 1 h at room temperature.
After incubation, 5 μL of 1.1:400 anti-PKC (isoform specific antibody) was added per well (to provide a final concentration of 1:4000). For PKC-epsilon, 1.1:800 dilution was used and for PKC-zeta a 1.1:100 dilution was used due to high and low binding affinity, respectively. The plates were then incubated 1 h at room temperature, followed by washing with dH2O as described above.
50 μL of 1:1000 dilution of Alkaline Phosphatase (AP) conjugated antibody (anti-rabbit for all except zeta, which was anti-goat) was then added and the plate incubated for 1 h at room temperature. Washing with dH2O was then repeated. Finally, 100 μL of pNPP solution in pNPP buffer (2 mM MgCl2, 100 mM Sodium bicarbonate in water, pH 9.8) was added to all wells and incubated for 8 minutes for α, βI, βII ε, and ζ, or for 15-20 mins for δ (until sufficient coloration is observed). The reaction was stopped by addition of Stop solution (2N NaOH) and the absorbance at 405 nm was read on a Galaxy Plate reader.
Controls were PKC without PRE; blank controls, and controls containing the final concentrations of DMSO used for solubilizing the PREs. The non-specific binding capacity related to DMSO was also measured.
The antibodies used were as follows: anti-PKC α (Cat. No. SC-208); anti-PKC βI (Cat. No. SC-209); anti-PKC βII (Cat. No. SC-210); anti-PKC δ (Cat. No. SC-213); anti-PKC ε (Cat. No. SC-214); anti-PKC ζ (Cat. No. SC-216-G) (all from Santa Cruz Biotechnology, Inc.). The AP-conjugated antibodies were obtained from Jackson Immuno Research Laboratories (West Grove, Pa.).
Calculations: The OD values measured at 405 nm represent the free PKC coated per well.
OD405 PKC alone−Blank OD405 of each sample=OD405 coated isoform
(OD405 of sample X/OD405 coated isoform)×100=% n that represents the percentage of X binding compared to control.
100-% n measures the relative binding capacity of X towards the tested isoform.
The apparent binding capacity of the DMSO samples was then subtracted from X binding capacity.
All measurements were made in triplicate and the values in the table represent the averaged calculated binding capacity values after subtraction of the DMSO apparent binding capacity (averaged from 12 values, respectively 10.80, 11.20 and 16.40 corresponding to the concentrations of DMSO used to dilute the […] at 200, 100 and 50 μM respectively). The results allow for quantitative comparison of the binding capacity of each PRE towards an individual isoform within each table, but not among isoforms due to differences in sensitivity of the specific antibodies toward the secondary antibody. This applies particularly to PKC-delta. As noted above, the colour development duration was increased 2-3 times and, as a result, the OD405 measurements may be overestimated for this isoform.

[1] = PRE 50 μM, purified PKC-ζ, read-out: calculated binding capacity (100-% n, DMSO apparent binding subtracted)
[2] = PRE 100 μM, purified PKC-ζ, read-out: calculated binding capacity (100-% n, DMSO apparent binding subtracted)

For CC[C@H](C)[C@H](NC(=O)[C@H](CO)NC(=O)[C@@H](NC(=O)CNC(=O)[C@@H](NC(=O)[C@H](CC(C)C)NC(=O)[C@H](CC(N)=O)NC(=O)[C@H](CCC(N)=O)NC(=O)[C@H](C)NC(=O)[C@H](CC(=O)O)NC(=O)CNC(=O)CNC(=O)[C@H](CCCCN)NC(=O)[C@@H](NC(=O)[C@H](CCC(=O)O)NC(=O)[C@H](CCC(N)=O)NC(=O)[C@@H](NC(=O)CNC(=O)[C@H](CCCCN)NC(=O)[C@H](C)NC(C)=O)[C@@H](C)CC)C(C)C)[C@@H](C)CC)[C@@H](C)CC)C(N)=O [PRE 3] (Ac-AKGIQEVKGGDAQNLIGISI-NH2), the “Affinity for PKC isoform ζ” value was “H”.
For CC[C@H](C)[C@H](NC(=O)[C@H](CO)NC(=O)[C@@H](NC(=O)CNC(=O)[C@@H](NC(=O)[C@H](CC(C)C)NC(=O)[C@H](CC(N)=O)NC(=O)[C@H](CCC(N)=O)NC(=O)[C@H](C)NC(=O)[C@H](CC(=O)O)NC(=O)[C@H](CCCCN)NC(C)=O)[C@@H](C)CC)[C@@H](C)CC)C(N)=O [PRE 4, Ac-KDAQNLIGISI-NH2] (Ac-KDAQNLIGISI-NH2), the inhibition at 50 µM [1] was 0%, the inhibition at 100 µM [2] was 0% and the “Affinity for PKC isoform ζ” value was “—”.
With CC[C@H](C)[C@H](NC(=O)[C@H](CO)NC(=O)[C@@H](NC(=O)CNC(=O)[C@@H](NC(=O)[C@H](CC(C)C)NC(=O)[C@H](CC(N)=O)NC(=O)[C@H](CCC(N)=O)NC(=O)[C@H](C)NC(=O)[C@H](CC(=O)O)NC(=O)[C@H](CCCCN)NC(=O)CNC(=O)CNC(=O)[C@H](CCCCN)NC(=O)[C@@H](NC(=O)[C@H](CCC(=O)O)NC(=O)[C@H](CCC(N)=O)NC(=O)[C@@H](NC(=O)CNC(=O)[C@H](CCCCN)NC(=O)[C@H](C)NC(C)=O)[C@@H](C)CC)C(C)C)[C@@H](C)CC)[C@@H](C)CC)C(N)=O [PRE 5] (Ac-AKGIQEVKGGKDAQNLIGISI-NH2) the inhibition at 50 µM [1] was 0%, the inhibition at 100 µM [2] was 0% and the inhibition at 200 µM (PRE 200 μM, purified PKC-ζ, read-out: calculated binding capacity (100-% n, DMSO apparent binding subtracted)) was 0%. For the same molecule, the “Affinity for PKC isoform ζ” value was “—”.
In the case of Ac-ISIGILNQADK-NH2 [PRE 10], the “Affinity for PKC isoform ζ” value is reported as “—”.
In the case of “Ac-ISIGILQNADK-NH2 (not fully specified; printed as Ac-ISIGILQNADK-NH2) [PRE 7]”, the “calculated binding capacity (100-% n, DMSO apparent binding subtracted)” value (PRE 50 μM, purified PKC-ζ) is reported as 1.83%, the “calculated binding capacity (100-% n, DMSO apparent binding subtracted)” value (PRE 200 μM, purified PKC-ζ) is reported as 1.54% and the “Affinity for PKC isoform ζ” value is reported as “—”.
With Ac-KDANQLIGISI-NH2 [PRE 6] the “Affinity for PKC isoform ζ” value was “—”.
In the case of Ac-KDAQNLI-NH2 [PRE 12], the “calculated binding capacity (100-% n, DMSO apparent binding subtracted)” value (PRE 50 μM, purified PKC-ζ) is reported as 4.20%, the “calculated binding capacity (100-% n, DMSO apparent binding subtracted)” value (PRE 100 μM, purified PKC-ζ) is reported as 8.77% and the “calculated binding capacity (100-% n, DMSO apparent binding subtracted)” value (PRE 200 μM, purified PKC-ζ) is reported as 0.33%. For the same molecule, the “Affinity for PKC isoform ζ” value was “—”.
With Ac-RDAQNLI-NH2 [PRE 13] the “calculated binding capacity (100-% n, DMSO apparent binding subtracted)” value (PRE 200 μM, purified PKC-ζ) was 4.29% and the “Affinity for PKC isoform ζ” value was “—”.
In the case of Ac-RDAQNLIGISI-NH2 [PRE 11], the “Affinity for PKC isoform ζ” value is reported as “—”.
In the case of “Ac-isigilqnadk-NH2 (Ac-[dI][dS][dI]G[dI][dL][dQ][dN][dA][dD][dK]-NH2; SMILES CC[C@@H](C)[C@@H](NC(C)=O)C(=O)N[C@H](CO)C(=O)N[C@@H](C(=O)NCC(=O)N[C@@H](C(=O)N[C@H](CC(C)C)C(=O)N[C@H](CCC(N)=O)C(=O)N[C@H](CC(N)=O)C(=O)N[C@H](C)C(=O)N[C@H](CC(=O)O)C(=O)N[C@H](CCCCN)C(N)=O)[C@H](C)CC)[C@H](C)CC) [PRE 9]”, the “Affinity for PKC isoform ζ” value is reported as “—”.
For ILEDKGGDAQNLIGISI [PRE 8], the “Affinity for PKC isoform ζ” value was “—”.
RRKKGGKDFVVKR [PRE 1] was tested, and the “calculated binding capacity (100-% n, DMSO apparent binding subtracted)” value (PRE 50 μM, purified PKC-ζ) was 4.11% and the “Affinity for PKC isoform ζ” value was “—”.
